The results in this text go back to patent US20250270737A1, “Antibodies That Bind GLP1R” (Twist Bioscience Corporation, priority 2019, published 2025).

Residue numbers refer to the chain shown, from its start.

One data set addresses GLP1R (Homo sapiens, UniProt P43220). Kind of data set: Binding assay with flow cytometry on flag-GLP1R-GFP expressing CHO cells (CHO-GLP1R). The settings on record: 100 nM IgG. The method, then: (§1) Briefly, flag-GLP1R-GFP expressing CHO cells (CHO-GLP1R) and CHO-parent cells were incubated with 100 nM IgG for 1 hour on ice, washed three times and incubated with Alexa 647 conjugated goat-anti-human antibody (1:200) for 30 minutes on ice, followed by three washes. All incubations and washes were performed in buffer containing PBS and 0.5% BSA. For titrations, IgG was serially diluted 1:3 starting from 100 nM. […] Analyses of binding assays with IgG titrations presented as binding curves plotting IgG concentrations against MFI (mean fluorescence intensity) are seen in FIGS. 15A-15H. Flow cytometry data of binding assays presented as dot plots with 100 nM IgG are seen in FIGS. 16A-16I.
(§2) The GLP1R IgGs were then assayed in binding assays coupled to flow cytometry analysis using similar methods as described in Example 12. Briefly, stably expressing Flag-GLP1R-GFP CHO cells or CHO-parent cells were incubated with primary IgG (100 nM or 1:3 titrations). Secondary antibody incubation involved Alexa 647 conjugated goat-anti-human IgG. Flow cytometry measured the GFP signal against the Alexa 647 signal to identify IgGs that specifically bound to the target (GLP1R).
Background: Flow cytometry measures light scatter and fluorescence of single cells or particles in a stream.

Data set [1] in a line: Thermal ramp stability (Tm and Tagg), UNcle platform. It counts as physicochemical. From the text: The GLP1R IgGs were characterized for thermal ramp stability (Tm and Tagg). The UNcle platform was used to characterize the IgGs and the data is seen in Table 21.
The test system of another data set is CHO-parent cells. In words: Binding assay with flow cytometry on CHO-parent cells. Conditions: 100 nM IgG. On the procedure: as §1, §2

Sequence of GLP1R (P43220 24-463): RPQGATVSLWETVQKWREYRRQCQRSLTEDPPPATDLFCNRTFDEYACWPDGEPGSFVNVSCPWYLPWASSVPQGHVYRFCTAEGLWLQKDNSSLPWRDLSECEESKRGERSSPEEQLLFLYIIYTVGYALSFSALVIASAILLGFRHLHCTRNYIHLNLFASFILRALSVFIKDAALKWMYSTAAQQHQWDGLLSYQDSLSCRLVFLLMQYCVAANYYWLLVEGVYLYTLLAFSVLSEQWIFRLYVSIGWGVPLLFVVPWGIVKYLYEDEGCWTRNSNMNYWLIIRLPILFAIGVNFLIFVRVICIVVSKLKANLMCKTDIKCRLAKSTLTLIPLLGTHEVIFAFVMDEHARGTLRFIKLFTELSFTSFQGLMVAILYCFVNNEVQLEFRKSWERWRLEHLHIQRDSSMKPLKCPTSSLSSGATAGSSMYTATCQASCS

B1: GLP1R-243: GLP1R scFv clone reformatted to IgG2; CDR-H3 SEQ ID NO 2301, heavy 2308, light 2315 (antibody)
heavy: MEWSWVFLFFLSVTTGVHSQVQLVQSGAEVKKPGSSVKVSCKASGGTFSTYGINWVRQAPGQGLEWMGGIIPIFGTANYAQKFQGRVTITADESTSTAYMELSSLRSEDTAVYYCARANQHFFGKGDNLAARDFINWLIQTKITDGSNPGYHYYGMDVWGQGTLVTVSSASASTKGPSVFPLAPCSRSTSESTAALGCLVKDYFPEPVTVSWNSGALTSGVHTFPAVLQSSGLYSLSSVVTVPSSNFGTQTYTCNVDHKPSNTKVDKTVERKCCVECPPCPAPPVAGPSVFLFPPKPKDTLMISRTPEVTCVVVDVSHEDPEVQFNWYVDGVEVHNAKTKPREEQFNSTFRVVSVLTVVHQDWLNGKEYKCKVSNKGLPAPIEKTISKTKGQPREPQVYTLPPSREEMTKNQVSLTCLVKGFYPSDIAVEWESNGQPENNYKTTPPMLDSDGSFFLYSKLTVDKSRWQQGNVFSCSVMHEALHNHYTQKSLSLSPG
light: MSVPTQVLGLLLLWLTDARCQSVLTQPPSVSAAPGQKVTISCSGSRSNIGKNYVSWYQQLPGTAPKLLIYENNERPSGIPDRFSGSKSGTSATLGITGLQTGDEADYYCSSYTTSNTQVFGGGTKLTVLGQPKAAPSVTLFPPSSEELQANKATLVCLISDFYPGAVTVAWKADSSPVKAGVETTTPSKQSNNKYAASSYLSLTPEQWKSHRSYSCQVTHEGSTVEKTVAPTECS
On to B1, for which the “binding to CHO-GLP1R” value with GLP1R is reported as “found to bind to CHO-GLP1R”.

B2: GLP1R-241: GLP1R scFv clone reformatted to IgG2; CDR-H3 SEQ ID NO 2299, heavy 2306, light 2313 (antibody)
heavy: MEWSWVFLFFLSVTTGVHSQVQLVQSGAEVKKPGSSVKVSCKASGGTFSDYAISWVRQAPGQGLEWMGGIIPIFGTTNYAQKFQGRVTITADESTSTAYMELSSLRSEDTAVYYCAKHMSMQGSVAGGTFTSDVSSYLEGQAAKEFIAWLVKGGPSFIRADLVGDAFDVWGQGTLVTVSSASASTKGPSVFPLAPCSRSTSESTAALGCLVKDYFPEPVTVSWNSGALTSGVHTFPAVLQSSGLYSLSSVVTVPSSNFGTQTYTCNVDHKPSNTKVDKTVERKCCVECPPCPAPPVAGPSVFLFPPKPKDTLMISRTPEVTCVVVDVSHEDPEVQFNWYVDGVEVHNAKTKPREEQFNSTFRVVSVLTVVHQDWLNGKEYKCKVSNKGLPAPIEKTISKTKGQPREPQVYTLPPSREEMTKNQVSLTCLVKGFYPSDIAVEWESNGQPENNYKTTPPMLDSDGSFFLYSKLTVDKSRWQQGNVFSCSVMHEALHNHYTQKSLSLSPG
light: MSVPTQVLGLLLLWLTDARCQSVLTQPPSVSAAPGQKVTISCSGISSNIGNNYVSWYQQLPGTAPKLLIYDDDQRPSGIPDRFSGSKSGTSATLGITGLQTGDEADYYCGTWDNILSAAVFGGGTKLTVLGQPKAAPSVTLFPPSSEELQANKATLVCLISDFYPGAVTVAWKADSSPVKAGVETTTPSKQSNNKYAASSYLSLTPEQWKSHRSYSCQVTHEGSTVEKTVAPTECS
B2: in data set [1], the “Average Tagg 266” value is 65.9 °C, the “Average Tm2” value was 75.7 °C and the “Average Tml” value stood at 68.2 °C. Besides, the “binding to CHO-GLP1R” value in the data set with GLP1R is given as “found to bind to CHO-GLP1R”.

B3: GLP1R-244: GLP1R scFv clone reformatted to IgG2; CDR-H3 SEQ ID NO 2302, heavy 2309, light 2316 (antibody)
heavy: MEWSWVFLFFLSVTTGVHSQVQLVQSGAEVKKPGSSVKVSCKASGGTFSSYAISWVRQAPGQGLEWMGGIIPIFGTANYAQKFQGRVTITADESTSTAYMELSSLRSEDTAVYYCARANQHFAATGAGEGQAAKEFIAWLVKGRVEIGYHYYGMDVWGQGTLVTVSSASASTKGPSVFPLAPCSRSTSESTAALGCLVKDYFPEPVTVSWNSGALTSGVHTFPAVLQSSGLYSLSSVVTVPSSNFGTQTYTCNVDHKPSNTKVDKTVERKCCVECPPCPAPPVAGPSVFLFPPKPKDTLMISRTPEVTCVVVDVSHEDPEVQFNWYVDGVEVHNAKTKPREEQFNSTFRVVSVLTVVHQDWLNGKEYKCKVSNKGLPAPIEKTISKTKGQPREPQVYTLPPSREEMTKNQVSLTCLVKGFYPSDIAVEWESNGQPENNYKTTPPMLDSDGSFFLYSKLTVDKSRWQQGNVFSCSVMHEALHNHYTQKSLSLSPG
light: B2 light with I45S, Y53V, D72N, Q74K, P76R, T111S, N114T, I115S, A118V, A119W
On to B3, for which the “binding to CHO-GLP1R” value with GLP1R is “found to bind to CHO-GLP1R”.

B4: GLP1R-238: GLP1R scFv clone reformatted to IgG2; CDR-H3 SEQ ID NO 2296, heavy 2303, light 2310 (antibody)
heavy: MEWSWVFLFFLSVTTGVHSQVQLVQSGAEVKKPGSSVKVSCKASGGSFSSHAISWVRQAPGQGLEWMGGIIPIFGAPNYAQKFQGRVTITADESTSTAYMELSSLRSEDTAVYYCARANQHFSQAGRAARVPGPSSSLGPRGYHYYGMDVWGQGTLVTVSSASASTKGPSVFPLAPCSRSTSESTAALGCLVKDYFPEPVTVSWNSGALTSGVHTFPAVLQSSGLYSLSSVVTVPSSNFGTQTYTCNVDHKPSNTKVDKTVERKCCVECPPCPAPPVAGPSVFLFPPKPKDTLMISRTPEVTCVVVDVSHEDPEVQFNWYVDGVEVHNAKTKPREEQFNSTFRVVSVLTVVHQDWLNGKEYKCKVSNKGLPAPIEKTISKTKGQPREPQVYTLPPSREEMTKNQVSLTCLVKGFYPSDIAVEWESNGQPENNYKTTPPMLDSDGSFFLYSKLTVDKSRWQQGNVFSCSVMHEALHNHYTQKSLSLSPG
light: MSVPTQVLGLLLLWLTDARCQSVLTQPPSVSAAPGQKVTISCSGSTSNIANNYVSWYQQLPGTAPKLLIYANNRRPSGIPDRFSGSKSGTSATLGITGLQTGDEADYYCGAWDVRLDVGVFGGGTKLTVLGQPKAAPSVTLFPPSSEELQANKATLVCLISDFYPGAVTVAWKADSSPVKAGVETTTPSKQSNNKYAASSYLS
As for B4, the “binding to CHO-parent cells versus CHO-GLP1R (specificity)” value with CHO-parent cells is “bound equally to CHO-GLP1R and CHO-parent cells”. Besides, in the data set with GLP1R, the “binding to CHO-GLP1R” value is given as “found to bind to CHO-GLP1R”.
